Consider 15 molecules from patent publication US20110293610A1 (published 2011).

Assay [1] has as its target T1, B Lymphocyte Stimulator, soluble form (human) (human, UniProt Q9Y275 134-285, biotinylated with NHS-biotin where used as biotinylated B Lymphocyte Stimulator).
T1 construct: Coated on plastic, captured on streptavidin plates, amine-coupled to a CM5 chip or free in solution, depending on the assay; also called BLyS; immobilized B Lymphocyte Stimulator
The experiment in a line: phage display panning on soluble BLyS. The text has this: (§1) In a specific embodiment, antibodies of the present invention cross react with APRIL (SEQ ID NO:3239; GenBank Accession No. AF046888; J. Exp. Med. 188(6):1185-1190; PCT International Publication WO97/33902). […] These scFvs were isolated by panning a phage scFv library comprising VH and VL domains obtained from human bone marrow B cells (BM library). Phage from the BM phage library were first selected for binding to soluble B Lymphocyte Stimulator (amino acids 134-285 of SEQ ID NO:3228). A second round of selection for binding to the soluble form of APRIL (amino acids 105-250 of SEQ ID NO:3239) was then performed on the B Lymphocyte Stimulator binding phage selected in round one. A third round of selection for binding to the soluble form of APRIL (amino acids 105-250 of SEQ ID NO:3239) was then performed on the phage selected in round two. A final (fourth) round of selection for binding to the soluble form of B Lymphocyte Stimulator (amino acids 134-285 of SEQ ID NO:3228) was then performed on the phage selected in round three. Phage clones that bound B Lymphocyte Stimulator in the fourth round of selection were eluted with either 0.1M triethylamine (TEA) or with a TACI-Fc fusion protein (e.g., the extracellular domain of TACI (amino acids 31 to 159 of Genbank Accession No. AAC51790) fused to Fc).

The target of the next assay is T2, APRIL, soluble form (Homo sapiens (Human), UniProt O75888 105-250).
T2 sequence: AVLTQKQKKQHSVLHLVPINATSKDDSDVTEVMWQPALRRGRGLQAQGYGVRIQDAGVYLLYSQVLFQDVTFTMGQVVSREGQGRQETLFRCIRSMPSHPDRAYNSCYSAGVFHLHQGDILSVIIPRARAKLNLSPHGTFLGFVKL
The experiment in a line: phage display panning on soluble APRIL, rounds two and three.
Source text: as §1

In assay [2] the target is T3, HIS-tagged B Lymphocyte Stimulator (human, UniProt Q9Y275 71-285).
T3 construct: Expressed in E. coli from pQE9 and purified; also called histidine-tagged B Lymphocyte Stimulator; HIS-B Lymphocyte Stimulator; not shown: histidine tag of the pQE9 vector
In words: BIAcore, periplasmic scFv on high density HIS-BLyS surface. The method, then:
All BIAcore analysis was performed on BIAcore 2000 machines, using the BIAcore 2000 control software and evaluated using the BIAevaluation 3.0 software. A high density His-tagged B Lymphocyte Stimulator surface (>1000 RU HIS-B Lymphocyte Stimulator coupled) was prepared in flow cell 2 by amine coupling to a CM5 chip. A new CM5 chip was inserted into the BIAcore and a sensorgram started over flow cell 2 with HBS buffer at a flow rate of 5 μl/min. The NHS and EDC solution were mixed 1:1 before injecting 30 μl over the CM5 surface. Fifty μl HIS-B Lymphocyte Stimulator (at 10 μg/ml in Sodium acetate buffer, pH4) was injected and allowed to couple to the surface. Thirty μl of ethanolamine-HCl solution was then injected to block free NHS esters. Prior to using the chip, 10 μl of 4M Guanidine hydrochloride in HBS was injected over the surface to strip the surface of non-covalently bound B Lymphocyte Stimulator. A blank surface (no HIS-B Lymphocyte Stimulator) was also prepared over flow cell 1 so that non-specific binding effects can be subtracted from the HIS-B Lymphocyte Stimulator binding curves.
The 96-well plate containing periplasmic scFvs was secured inside the BIAcore. Two ml of 4M Guanidine hydrochloride in HBS was placed in a rack inside the BIAcore for regeneration of the HIS-B Lymphocyte Stimulator surface between samples. The sensorgram was run over flow cells 1 and 2 at a flow rate of […].
In general terms: Surface plasmon resonance follows binding to a sensor surface in real time, without labels.

Positions count from the first letter of the chain named.

B1: BAB2001 (scFv)
scFv: GVQLVQSGAEVRKPGASVKVSCKPSGYPFSGNYIHWVRQAPGQGPEWMGWINPNSGDTKYSQKFQGWVTMTRDTSVSTVYMELNRLKSDDTAIYYCAREQYDTLTGSPYGMDVWGKGTLVTVSSGGGGSGGGGSGGGGSDIQMTQSPSTLSASIGDRVTITCRASQGINNYLAWYQQKPGRAPKLLIYAASSLQSGVPSRFSGSGSGTDFTLTISSLQPEDFATYYCLQDSDYPLTFGGGTKLEIKR
For B1, the binding result is “binds” in assay [1] and “binds” in the assay with APRIL, soluble form.

B2: I084A01 (scFv)
scFv: QVQLVQSGGGLVQPGGSLRLSCAASGFTFSSYEMNWVRQAPGKGLEWVSYISSSGSTTYYADSVKGRFTISRDNAKNSLYLQMNSLRAEDTAVYYCARDTTDYWGQGTMVTVSSGGGGSGGGGSGGGGSQSVLTQPPSASGTPGQRVTISCSGSSSNIGSNTVNWYQRLPGAAPQLLIYNNDQRPSGIPDRFSGSKSGTSGSLVISGLQSEDEADYYCASWDDSLNGRVFGGGTKLTVLG
On to B2, for which, in assay [2], the binding result was “binds”.

B3: I084C04 (scFv)
scFv: VQLVQSGAEVKKPGASVKVSCKASGYTFTSYGISWVRQAPGQGLEWMGWINPNSGGTNYAQKFQGRVTMTRDTSISTAYMELSRLRSDDTAVYYCARNLWGLDYWGKGTMVTVSSGGGGSGGGGSGGGGSSELTQDPAVSVALGQTVRITCQGDSLRSYYASWYQQKPGQAPVLVIYGKNNRPSGIPDRFSGSSSGNTASLTITGAQAEDEADYYCNSRDSSGNHVVFGGGTKLTVLG
As to B3, the binding result in assay [2] is “binds”.

B4: I080D03 (scFv)
scFv: QVQLVQSGAELKQPGTSVKVSCKASGYSFSSYGVTWVRQAPGQGLEWMGWVSGNRGNTQYAQKFQDRVRMTTDTSTSTAYMELRSLRPDDTAVYFCARVGIKAAAVDNFEYWGRGTTVTVSSGGGGSGGGGSGGGGSAQSVLTQPPSASGTPGQRVTITCSGSSSNIGDYYVNWYQQVSGTTPKLIIYRDDQRPSGVPDRFSGSKSGASASLAISGLRSEDEANYFCAAWDDSLREFAFGTGTKVTVLG
With B4, the binding result in assay [2] was “binds”.

B5: I080A03 (scFv)
scFv: QVQLQQSGAELKQPGTSVKVSCKASGYSFSCYDVNWVRQAPGQGLEWMGRINPNSGNTHYAQKFQDRVTMTTDTSTSTAYMELNSLRPDDTAVYFCARVGIKAAAVDNFEYWGRGTTVTVSSGGGGSGGGGSGGGGSAQSVLTQPPSASGTPGQRVTITCSGSSSNIGDYYVNWYQQVSGTTPKLIIYRDDQRPSGVPDRFSGSKSGASASLAISGLRSEDEANYFCAAWDDSLREFAFGTGTKVTVLG
B5: the binding result in assay [2] is “binds”.

B6: I083G03 (scFv)
scFv: B4 scFv with A92D
B6: the binding result in assay [2] is “binds”.

B7: I082B08 (scFv)
scFv: QVQLVQSGAEVKKPGGSVKVSCKASAYTFTRYYMHWVRQAPGQGLEWMGIINPSGGRTSYAQKFQGRVTMTRDTSTSTVYMELSSLRSEDTAVYYCARDLGIAGTIYFDYWGKGTLVTVSSGGGGSGGGGSGGGGSQSVLTQPPSVSAAPGQKVTISCSGSTSNIGNNYVSWYQQHPGKAPKLMIYDVSKRPSGVPDRFSGSKSGNSASLDISGLQSEDEADYYCAAWDDSLSEFLFGTGTKLTVLG
As for B7, the binding result in assay [2] is given as “binds”.

B8: I083B12 (scFv)
scFv: QVQLVQSGAEVKKPGASVKVSCKASEYTFYNHYMHWVRQAPGQGLEWMGFINPSGDAAWYAQKFQGRVTLTRDTSTRTVYMELSGLTSEDTAVYYCARESGAGGYYYDDYWGKGTLVTVSSGGGGSGGGGSGGGGSALSYVLTQPPSVSVAPGKTASIPCGGNNIGSKSVQWYLQKAGQAPILVVYDDSDRPSGIPERFSGSNSGNTATLTITRVEAGDEADYYCQVWDSSSDHWFFGGGTKLTVLG
With B8, in assay [2], the binding result is “binds”.

B9: I082A05 (scFv)
scFv: QVQLQQSGGGVVQPGRSLRLSCAASGFTYSSYAMHWVRQAPGKGLEWVAVISYDGSIKYYADSVKGRFTISRDNSKNTLYLQMNSLRAEDTAVYYCARDLDFDYWGKGTLVTVSSGGGGSGGGGSGGGGSQSVLTQPPSVSAAPGQKVTISCSGSTSNIGNNYVSWYQQHPGKAPKFMIYDVSKRPSGVSNRFSGSKSGNTASLTISGVQAEDEADYYCSSYTSASTVIFGGGTKLTVLG
In the case of B9, the binding result in assay [2] is “binds”.

B10: I082G01 (scFv)
scFv: QMQLVQSGAEVKKPGASVKVSCKASGYTFTSYYMHWVRQAPGQGLEWMGLVHPNDGSVNYAQKFKGRVTMTRDTSTSTVYMELSSLRSDDTAVYYCARDRGSGWPNWYFDLWGQGTLVTVSSGGGGSGGGGSGGGGSDIQMTQSPSTLSASIGDRVTITCRASEGIYHWLAWYQQKPGKAPKLLIYKASSLASGAPSRFSGSGSGTDFTLTISSLQPDDFATYYCQQYSNYPLTFGGGTKLEIKH
On to B10, for which the binding result in assay [2] is “binds”.

B11: I084C11 (scFv)
scFv: GVQLEESGAEVKKPGASVKVSCKASGYTFTGYYMHWVRQAPGQGLEWMGWINPNSGGTNYAQKFQGRVTMTRDTSISTAYMELSRLRSDDTAVYYCARGNAWGAFDIWGRSTLVTVSSGGGGSGGGGSGGGGSQSVLTQPASVSGSPGQSITISCTGTSSDVGGYNYVSWYQQHPGKAPKLMIYEGSKRPSGVSNRFSGSKSGNTASLTVSGLQAEDEADYYCSSYTTRSTRVFGGGTKLTVLG
For the molecule B11, in assay [2], the binding result is recorded as “binds”.

B12: I080E05 (scFv)
scFv: EVQLVQSGAAVKKPGASVKVSCKASGYTFTTYYIHWVRQAPGQGLEWMGIINPVNGNTIYAQKFQGRVTMTRDTSTGTVNMELSSLRSEDTAVFYCVREGGGDAYDVAPYYFDYWGQGTLVTVSSGGGGSGGGGSGGGGSAQAVLTQPSSVSGAPGQRVTISCTGSSSNIGDGYDVHWYQQLPGTAPKLLIYGNSHRPSGVPDRFSGSKSDTSASLAITGLQVEDEADYFCHSYDSSVSGWIFGGGTKLTVLG
For B12, in assay [2], the binding result was “binds”.

B13: I080G07 (scFv)
scFv: QVQLVQSGAEVKKPGASVKVSCKASGYTFTSYAMHWVRQAPGQRLEWMGWINAGNGNTKYSQKFQGRVTITRDTSASTAYMELSSLRSEDTAVYYCAREGPGYYYGMDVWGQGTMVTVSSGGGGSGGGGSGGGGSALETTLTQSPGTLSLSPGERATLSCRASQAIGSNYLAWYQQKPGQPPSLLIYGASSRATGIPDRFSASGSGTDFTLTISRLEPEDFAVYYCQQYGSSITFGQGTRLEIKR
Turning to B13, the binding result in assay [2] is reported as “binds”.

B14: I084B02 (scFv)
scFv: QVQLVQSGGGLVQPGGSLRLSCAASGFTFSSYEMNWVRQAPGKGLEWVSYISSSGSTTYYADSVKGRFTISRDNAKNSLYLQMNSLRAEDTAVYYCARDTTDYWGQGTLVTVSSGGGGSGGGGSGGGGSDIVMTQSPSTLSASVGDRVTITCRASQGISSWLAWYQQKPGRAPKVLIYKASTLESGVPSRFSGSGSGTDFTLTISSLQPEDFATYYCQQSYSTPWTFGQGTKLEIKR
Take B14: the binding result in assay [2] is “binds”.

B15: I080A08 (scFv)
scFv: QVTLKESGGDLVQPGGSLRLSCAASGLTFMSYAMTWVRQAPGKGLEWVSSISGSGDNTYYGDSVRGRFTISRDNSKNTLFLQLNSLRAEDTAFYYCAKVHSTGYAFENWGRGTLVTVSSGGGGSGGGGSGGGGSAQSVLTQPPSVSGAPGQRVTISCTGSSSNIGAGYNVHWYQQLPGTAPRLLISSNTNRPSGVPDRFSGSKSGTSASLAITGLQAEDEADYYCQSYDSSLSGFVFGTGTKVTVLG
As to B15, the binding result in assay [2] is “binds”.
